These results are taken from patent publication US20220348665A1 (ABL BIO, published 2022).

Substitutions are numbered along the chain they refer to. Values joined by “and” are separate entries in the source; they are usually repeats but may differ in a detail not shown here. Equal entries are not always repeated. Where two headings read alike, the source gives them in different places.

Experiment [1] addresses T1, alpha-synuclein aggregates (human alpha-synuclein, fibril) (human, UniProt P37840 1-140). Nature of the experiment: SPR (BIAcore T200), antibody captured on protein A chip, 1:1 model. For orientation: In SPR one partner is held on a chip, and binding of the other changes the refractive index at the surface.
For experiment [2], the target named is T1, alpha-synuclein aggregates (human …). Nature of the experiment: SPR (BIAcore T200), antibody captured on Protein A chip, alpha-synuclein fibril as analyte (file ProteinA-Fibril-main-5th), 25 C, fit 1:1 Binding.
Experiment [3] has the same target. Nature of the experiment: sandwich ELISA: antibody coated at 0.04 to 400 nM, 2000 ng/ml alpha-synuclein aggregates, biotin-conjugated antibody and HRP-streptavidin; value is C of the 4-P fit table under the plot, which the text calls EC50. A general note: An ELISA detects its analyte on a solid surface through an enzyme-linked reagent.
Experiment [4] has the same target. The experiment is described as follows: SPR (BIAcore T200), antibody captured on Protein A chip, alpha-synuclein fibril as analyte (file ProteinA-Fibril-main-5th), 25 C, fit 1:1 Binding. The source holds these as a separate data set.
The target in experiment [5] is T2, human IGF1R, endogenous, on the surface of breast cancer cell lines (MCF-7, JIMT-1, BT474) (human, UniProt P08069 31-1367).
T2 construct: also called endogenous IGF1R on the cell surface; MCF-7 cell line
The experiment is described as follows: FACS on MCF-7 cells, antibody 10 ug/mL (2nd Ab only 2.86, not treated 1.88).

Experiment [6] has as its target T1, alpha-synuclein aggregates (human …). The experiment is described as follows: ELISA on coated alpha-synuclein aggregates, antibody 5-fold dilutions from 400 nM, anti-human Fc-HRP; value is C of the 4-P fit table under the plot.
The target is the same in experiment [7]. The experiment is described as follows: ELISA on alpha-synuclein aggregates coated at 1 ug/ml, antibody 5-fold dilutions from 400 nM, anti-human Fc-HRP; value is C of the 4-P fit table under the plot.
The target in experiment [8] is T3, monkey IGF1R, recombinant, His tag at C-terminus (monkey).
T3 construct: also called Monkey IGF1R (National Research Council Canada)
Nature of the experiment: ELISA, monkey IGF1R coated, anti-human Fab HRP.

Experiment [9] concerns the target T1, alpha-synuclein aggregates (human …). Nature of the experiment: SPR (BIAcore T200), antibody captured on Protein A chip, alpha-synuclein fibril as analyte (file ProteinA-Fibril-main-5th), 25 C, fit 1:1 Binding. The source holds these as a separate data set.
The target in experiment [10] is T4, human IGF1R extracellular domain, recombinant, His tag at C-terminus (human, UniProt P08069 31-932).
T4 construct: also called human IGF1R ECD; ECD of IGF1R
Nature of the experiment: ELISA on coated IGF1R, antibody 5-fold dilutions from 400 nM, anti-human Fc-HRP; C of the 4-P fit (D 2.68), extrapolated: curve at baseline up to about 3 nM, about 0.8 at 80 nM and about 1.75 at 400 nM, no plateau; the text says this monospecific antibody did not bind.

Experiment [11] has as its target T5, mouse IGF1R on bEND.3 mouse brain endothelial cells (mouse, UniProt Q60751 31-1373).
T5 construct: whole, on cells; also called IGF1R expressed on the surface of brain endothelial cells
The experiment is described as follows: FACS on bEND.3 mouse brain endothelial cells.

Experiment [12] deals with T4, human IGF1R extracellular domain, …. Nature of the experiment: ELISA on coated IGF1R, antibody 5-fold dilutions from 400 nM, anti-human Fc-HRP; C of the 4-P fit (D 0.945, R^2 0.985), extrapolated: curve at baseline up to 16 nM, about 0.2 at 80 nM and about 0.75 at 400 nM, no plateau; the text says this monospecific antibody did not bind.
The target of experiment [13] is T1, alpha-synuclein aggregates (human …). The experiment is described as follows: sandwich ELISA, antibody coated, aggregates 2000 ng/ml.
In experiment [14] the target is T4, human IGF1R extracellular domain, …. The experiment is described as follows: SPR (Biacore T200), His-tagged human IGF1R ECD captured by anti-His antibody on CM4 chip, 1564 IgG as analyte, 25 C, fit Bivalent Analyte; lower panel.
For experiment [15] the target is unchanged. Nature of the experiment: SPR (Biacore T200), His-tagged human IGF1R ECD captured by anti-His antibody on CM4 chip, 1564 IgG as analyte, 25 C, fit Bivalent Analyte; upper panel.
For experiment [16] the target is unchanged. The experiment is described as follows: SPR (Biacore T200), His-tagged human IGF1R ECD captured by anti-his antibody on CM4 chip, bivalent model.
The target is the same in experiment [17]. The experiment is described as follows: ELISA, human IGF1R coated, anti-human Fab HRP.

As usually defined, the koff is the first-order rate constant of dissociation. In general, kon refers to the rate constant with which the complex forms. What is called EC50 is the midpoint of the concentration-response curve.

T5 sequence (Q60751 31-1373): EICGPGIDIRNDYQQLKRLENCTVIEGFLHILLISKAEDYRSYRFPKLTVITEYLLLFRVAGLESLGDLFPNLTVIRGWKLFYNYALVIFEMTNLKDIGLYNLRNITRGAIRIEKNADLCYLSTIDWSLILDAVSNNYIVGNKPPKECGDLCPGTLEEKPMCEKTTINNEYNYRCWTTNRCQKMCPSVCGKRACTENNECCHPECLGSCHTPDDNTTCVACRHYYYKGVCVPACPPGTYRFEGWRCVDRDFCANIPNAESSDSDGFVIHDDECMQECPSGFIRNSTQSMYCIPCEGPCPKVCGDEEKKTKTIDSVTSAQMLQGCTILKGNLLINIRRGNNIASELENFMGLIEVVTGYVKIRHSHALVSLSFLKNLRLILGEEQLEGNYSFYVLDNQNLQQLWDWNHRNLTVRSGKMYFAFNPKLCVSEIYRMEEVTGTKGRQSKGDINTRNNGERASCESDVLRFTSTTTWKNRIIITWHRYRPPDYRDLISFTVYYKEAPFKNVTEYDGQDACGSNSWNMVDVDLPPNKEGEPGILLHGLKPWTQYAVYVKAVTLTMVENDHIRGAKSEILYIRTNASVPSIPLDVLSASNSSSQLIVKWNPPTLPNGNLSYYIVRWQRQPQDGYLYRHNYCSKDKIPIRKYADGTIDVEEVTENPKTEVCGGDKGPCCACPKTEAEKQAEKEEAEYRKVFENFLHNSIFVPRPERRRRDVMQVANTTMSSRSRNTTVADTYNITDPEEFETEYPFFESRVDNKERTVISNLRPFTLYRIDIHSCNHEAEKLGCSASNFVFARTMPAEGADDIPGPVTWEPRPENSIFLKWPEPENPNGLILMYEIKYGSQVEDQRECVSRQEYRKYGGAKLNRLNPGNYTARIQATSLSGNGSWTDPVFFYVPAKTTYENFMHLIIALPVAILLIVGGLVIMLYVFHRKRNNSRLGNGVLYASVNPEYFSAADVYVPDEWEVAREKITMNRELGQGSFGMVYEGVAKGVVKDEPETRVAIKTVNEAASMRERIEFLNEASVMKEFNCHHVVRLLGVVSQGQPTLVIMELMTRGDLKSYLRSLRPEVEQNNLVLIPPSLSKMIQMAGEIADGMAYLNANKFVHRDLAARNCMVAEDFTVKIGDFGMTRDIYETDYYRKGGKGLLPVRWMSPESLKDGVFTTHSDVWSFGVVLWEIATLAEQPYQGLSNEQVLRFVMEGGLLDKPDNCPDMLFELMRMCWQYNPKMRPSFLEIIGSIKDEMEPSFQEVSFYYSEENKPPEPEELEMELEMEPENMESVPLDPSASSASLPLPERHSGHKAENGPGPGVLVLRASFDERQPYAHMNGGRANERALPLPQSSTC

B1: hu11F11(ver.4) (antibody, human IgG1, V domains shown)
VH: EVQLVESGGGLVQPGGSLRLSCATSGFTFSDFYMEWVRQPPGKRLEWIAASRNKANDYTTEYSASVKGRFTVSRDTSKSSLYLQMNSLRAEDTAIYYCARDAHGKPFAYWGQGTTVTVSS
VL: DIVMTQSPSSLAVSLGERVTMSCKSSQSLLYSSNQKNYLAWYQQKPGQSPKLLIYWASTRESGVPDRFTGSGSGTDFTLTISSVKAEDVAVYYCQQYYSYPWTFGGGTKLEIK
notes: Human IgG1 backbone
B1 returned a Kd in experiment [1] of 0.0204 nM. Moreover, in experiment [2], the koff is 0.000291 s⁻¹ and the kon worked out at 1.07e+06 M⁻¹ s⁻¹. Further, the EC50 in experiment [3] was found to be 12.9 nM.

B2: hu11F11(ver.2) (antibody, human IgG1, kappa, V domains shown)
VH: B1 VH with T76D
VL: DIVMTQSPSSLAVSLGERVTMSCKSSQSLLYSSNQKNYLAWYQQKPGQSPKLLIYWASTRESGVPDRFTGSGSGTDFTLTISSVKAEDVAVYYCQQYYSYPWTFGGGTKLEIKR
notes: also called hu11F11 WT; humanized antibody 11F11 (ver. 2)
In [4], B2 registered a koff of 0.000173 s⁻¹ and a kon of 1.19e+06 M⁻¹ s⁻¹. Also, the Kd in experiment [1] was found to be 0.0596 nM. It took 15.1 nM to reach a half-maximal effect in experiment [3] (EC50). In addition, the “GeoMean, Internalization at 37° C.” value in experiment [5] was 3.18.

B3: ch11F11-1564 (bivalent bispecific antibody: chimeric 11F11 IgG with 1564 scFv on each heavy chain) (bispecific antibody, not shown: a dimerising Fc or GST)
heavy (part 1 of 2): B1 VH with V5Q, T71I, K78Q, S80I, S87A, T115L, S120A
heavy (part 2 of 2): GGGGSGGGGSGGGGSQSVLTQPPSASGTPGQRVTISCTGSSSNIGSNDVSWYQQLPGTAPKLLIYANSNRPSGVSDRFSGSKSGTSASLAISGLRSEDEADYYCGAWDDSLNGYVFGCGTKLTVLGGGGSGGGGSGGGGSGGGGSEVQLLESGGGLVQPGGSLRLSCAASGFTFSSYDMSWVRQAPGKCLEWVSAISYDNGNTYYADSVKGRFTISRDNSKNTLYLQMNSLRAEDTAVYYCAKGVLTTLMNWFDYWGQGTLVTVSS
light: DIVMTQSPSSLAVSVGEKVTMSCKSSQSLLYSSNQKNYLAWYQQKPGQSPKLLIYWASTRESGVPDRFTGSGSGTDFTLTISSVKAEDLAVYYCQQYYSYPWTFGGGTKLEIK
Take B3: the EC50 in experiment [6] was 1.5 nM; in experiment [7], 22.7 nM; in experiment [8], 2.48 nM and 2.21 nM.

B4: hu11F11(ver.1) (antibody, human IgG1, V domains shown)
VH: B1 VH with V72I, T76D
VL: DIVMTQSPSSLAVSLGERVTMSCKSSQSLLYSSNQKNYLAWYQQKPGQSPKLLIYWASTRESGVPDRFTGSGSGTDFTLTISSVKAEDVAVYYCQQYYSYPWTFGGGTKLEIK
notes: Human IgG1 backbone
In turn, B4 returned an EC50 in experiment [3] of 11.5 nM. Also, in [9], the koff was determined as 5.36e-05 s⁻¹ and the kon was 845000 M⁻¹ s⁻¹.

B5: Ch11F11 (chimeric 11F11 antibody, human IgG1) (antibody, V domains shown)
VH: B1 VH with V5Q, T71I, K78Q, S80I, S87A, T115L, S120A
VL: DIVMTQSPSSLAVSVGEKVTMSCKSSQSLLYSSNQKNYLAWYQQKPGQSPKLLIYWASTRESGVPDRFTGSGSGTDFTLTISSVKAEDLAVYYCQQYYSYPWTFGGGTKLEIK
notes: Chimeric human IgG1
As for B5, in experiment [1], the Kd amounted to 0.0247 nM. Further, the concentration giving a half-maximal response (EC50) was 201 nM in [10]; 1.27 nM in experiment [6]; 33.8 nM in experiment [7]; 196 nM in experiment [12]; 12.5 nM in [13]. The binding result in experiment [11] was “no binding”. The koff in experiment [9] was determined as 0.000563 s⁻¹. Also, in experiment [9], the kon was 609000 M⁻¹ s⁻¹.

B6: hu11F11(ver.3) (antibody, human IgG1, V domains shown)
VH: B1 VH with V72I
VL: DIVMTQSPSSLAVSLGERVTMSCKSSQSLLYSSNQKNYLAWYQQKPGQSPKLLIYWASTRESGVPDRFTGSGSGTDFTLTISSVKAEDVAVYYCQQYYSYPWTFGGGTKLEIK
notes: Human IgG1 backbone
In experiment [4], B6 returned a koff of 0.000266 s⁻¹ and a kon of 1.07e+06 M⁻¹ s⁻¹. In addition, the Kd in [1] was determined as 0.0316 nM. The same molecule registered an EC50 in [3] of 13.4 nM.

B7: 1564 IgG (anti-IGF1R clone 1564, full IgG1 form) (antibody, V domains shown)
VH: EVQLLESGGGLVQPGGSLRLSCAASGFTFSSYDMSWVRQAPGKGLEWVSAISYDNGNTYYADSVKGRFTISRDNSKNTLYLQMNSLRAEDTAVYYCAKGVLTTLMNWFDYWGQGTLVTVSS
VL: QSVLTQPPSASGTPGQRVTISCTGSSSNIGSNDVSWYQQLPGTAPKLLIYANSNRPSGVPDRFSGSKSGTSASLAISGLRSEDEADYYCGAWDDSLNGYVFGGGTKLTVL
As for B7, the koff in experiment [14] is 2.53e-06 s⁻¹. Further, in experiment [15], the koff is 2.41e-06 s⁻¹ and the kon worked out at 902 M⁻¹ s⁻¹. For the same molecule, in experiment [16], the Kd stood at 2.53 nM. Further, the concentration for a half-maximal effect (EC50) in experiment [17] is 0.0823 nM.
